Literature values in PMC5423825.

Biological target: CFluc398 (FGG-tagged C-terminal firefly luciferase fragment) CFluc398 (Photinus pyralis) [luciferase: P08659]

Kd: 112 µM
Substance: NFluc437 (FGG-tagged N-terminal firefly luciferase fragment) NFluc437 (from UniProt P08659)
